Key:
Assay in all cases: ELISA on coated recombinant spike trimer
[1] = biological target: T1, Trimeric 229E-CoV spike ectodomain (tri-S) (229E-CoV, UniProt P15423 16-1115)
T1 construct: extracellular domain
T1 sequence: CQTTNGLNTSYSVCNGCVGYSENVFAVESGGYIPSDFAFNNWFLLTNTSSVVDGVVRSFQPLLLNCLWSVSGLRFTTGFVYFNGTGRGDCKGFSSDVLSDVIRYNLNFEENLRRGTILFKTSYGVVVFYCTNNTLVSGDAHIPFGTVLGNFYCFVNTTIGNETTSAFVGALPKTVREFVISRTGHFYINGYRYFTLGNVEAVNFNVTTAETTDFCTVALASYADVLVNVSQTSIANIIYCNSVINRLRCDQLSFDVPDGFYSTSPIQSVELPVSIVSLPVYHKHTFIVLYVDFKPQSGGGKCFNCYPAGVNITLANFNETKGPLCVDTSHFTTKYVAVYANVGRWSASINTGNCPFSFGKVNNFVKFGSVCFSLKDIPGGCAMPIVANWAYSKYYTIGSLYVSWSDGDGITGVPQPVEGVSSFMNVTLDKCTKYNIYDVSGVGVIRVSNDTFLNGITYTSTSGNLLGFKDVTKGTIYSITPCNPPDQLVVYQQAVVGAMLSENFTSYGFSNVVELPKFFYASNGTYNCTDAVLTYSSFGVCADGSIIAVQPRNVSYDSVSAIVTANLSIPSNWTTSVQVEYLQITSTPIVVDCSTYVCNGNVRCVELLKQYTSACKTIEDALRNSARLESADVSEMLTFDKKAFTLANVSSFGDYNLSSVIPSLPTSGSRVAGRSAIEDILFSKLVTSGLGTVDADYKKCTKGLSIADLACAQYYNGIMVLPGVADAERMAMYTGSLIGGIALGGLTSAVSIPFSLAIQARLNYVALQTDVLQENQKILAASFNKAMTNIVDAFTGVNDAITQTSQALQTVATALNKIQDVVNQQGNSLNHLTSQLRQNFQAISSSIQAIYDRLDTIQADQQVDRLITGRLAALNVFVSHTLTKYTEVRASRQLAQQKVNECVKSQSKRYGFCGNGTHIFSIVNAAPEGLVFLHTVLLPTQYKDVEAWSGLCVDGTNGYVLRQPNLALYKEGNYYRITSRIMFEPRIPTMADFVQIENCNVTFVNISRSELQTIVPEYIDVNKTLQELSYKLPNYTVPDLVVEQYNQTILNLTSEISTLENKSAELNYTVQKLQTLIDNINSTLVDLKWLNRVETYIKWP

[2] = biological target: T2, Trimeric OC43-CoV spike ectodomain (tri-S) (OC43-CoV, UniProt P36334 14-1297)
T2 construct: extracellular domain
T2 sequence: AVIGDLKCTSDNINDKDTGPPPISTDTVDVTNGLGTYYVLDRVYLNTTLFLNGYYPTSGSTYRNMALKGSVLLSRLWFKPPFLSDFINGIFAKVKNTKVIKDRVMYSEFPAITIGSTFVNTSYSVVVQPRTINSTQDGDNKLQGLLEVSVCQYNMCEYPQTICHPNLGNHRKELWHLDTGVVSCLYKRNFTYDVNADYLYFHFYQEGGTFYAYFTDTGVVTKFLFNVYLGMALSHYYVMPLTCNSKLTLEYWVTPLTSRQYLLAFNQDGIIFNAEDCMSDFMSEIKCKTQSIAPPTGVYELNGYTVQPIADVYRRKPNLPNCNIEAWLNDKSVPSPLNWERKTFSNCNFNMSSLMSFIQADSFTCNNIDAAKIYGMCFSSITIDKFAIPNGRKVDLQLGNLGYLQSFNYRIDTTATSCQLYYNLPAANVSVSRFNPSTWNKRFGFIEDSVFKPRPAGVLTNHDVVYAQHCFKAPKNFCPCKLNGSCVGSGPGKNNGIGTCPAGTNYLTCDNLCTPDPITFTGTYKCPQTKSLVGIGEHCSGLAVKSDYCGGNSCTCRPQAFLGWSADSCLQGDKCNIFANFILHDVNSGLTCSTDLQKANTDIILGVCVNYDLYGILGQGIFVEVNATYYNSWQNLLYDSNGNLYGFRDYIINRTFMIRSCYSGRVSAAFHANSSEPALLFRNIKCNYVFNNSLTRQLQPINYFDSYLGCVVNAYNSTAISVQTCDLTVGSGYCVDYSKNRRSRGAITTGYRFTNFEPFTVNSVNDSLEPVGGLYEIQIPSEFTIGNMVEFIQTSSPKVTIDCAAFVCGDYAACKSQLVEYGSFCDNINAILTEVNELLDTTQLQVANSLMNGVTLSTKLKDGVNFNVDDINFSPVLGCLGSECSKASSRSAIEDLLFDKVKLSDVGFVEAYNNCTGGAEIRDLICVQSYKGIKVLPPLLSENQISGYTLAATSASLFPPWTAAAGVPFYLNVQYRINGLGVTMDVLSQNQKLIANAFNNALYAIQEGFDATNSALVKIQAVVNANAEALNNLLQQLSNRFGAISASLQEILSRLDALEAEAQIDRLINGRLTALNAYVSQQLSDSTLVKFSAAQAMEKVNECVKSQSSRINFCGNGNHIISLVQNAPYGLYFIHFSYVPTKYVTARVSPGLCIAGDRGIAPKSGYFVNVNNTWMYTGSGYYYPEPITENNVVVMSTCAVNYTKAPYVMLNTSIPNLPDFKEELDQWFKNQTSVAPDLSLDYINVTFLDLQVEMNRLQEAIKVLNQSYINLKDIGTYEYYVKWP

[3] = biological target: T3, Trimeric HKU1-CoV spike ectodomain (tri-S) (HKU1-CoV, UniProt Q5MQD0 13-1300)
T3 construct: extracellular domain
T3 sequence: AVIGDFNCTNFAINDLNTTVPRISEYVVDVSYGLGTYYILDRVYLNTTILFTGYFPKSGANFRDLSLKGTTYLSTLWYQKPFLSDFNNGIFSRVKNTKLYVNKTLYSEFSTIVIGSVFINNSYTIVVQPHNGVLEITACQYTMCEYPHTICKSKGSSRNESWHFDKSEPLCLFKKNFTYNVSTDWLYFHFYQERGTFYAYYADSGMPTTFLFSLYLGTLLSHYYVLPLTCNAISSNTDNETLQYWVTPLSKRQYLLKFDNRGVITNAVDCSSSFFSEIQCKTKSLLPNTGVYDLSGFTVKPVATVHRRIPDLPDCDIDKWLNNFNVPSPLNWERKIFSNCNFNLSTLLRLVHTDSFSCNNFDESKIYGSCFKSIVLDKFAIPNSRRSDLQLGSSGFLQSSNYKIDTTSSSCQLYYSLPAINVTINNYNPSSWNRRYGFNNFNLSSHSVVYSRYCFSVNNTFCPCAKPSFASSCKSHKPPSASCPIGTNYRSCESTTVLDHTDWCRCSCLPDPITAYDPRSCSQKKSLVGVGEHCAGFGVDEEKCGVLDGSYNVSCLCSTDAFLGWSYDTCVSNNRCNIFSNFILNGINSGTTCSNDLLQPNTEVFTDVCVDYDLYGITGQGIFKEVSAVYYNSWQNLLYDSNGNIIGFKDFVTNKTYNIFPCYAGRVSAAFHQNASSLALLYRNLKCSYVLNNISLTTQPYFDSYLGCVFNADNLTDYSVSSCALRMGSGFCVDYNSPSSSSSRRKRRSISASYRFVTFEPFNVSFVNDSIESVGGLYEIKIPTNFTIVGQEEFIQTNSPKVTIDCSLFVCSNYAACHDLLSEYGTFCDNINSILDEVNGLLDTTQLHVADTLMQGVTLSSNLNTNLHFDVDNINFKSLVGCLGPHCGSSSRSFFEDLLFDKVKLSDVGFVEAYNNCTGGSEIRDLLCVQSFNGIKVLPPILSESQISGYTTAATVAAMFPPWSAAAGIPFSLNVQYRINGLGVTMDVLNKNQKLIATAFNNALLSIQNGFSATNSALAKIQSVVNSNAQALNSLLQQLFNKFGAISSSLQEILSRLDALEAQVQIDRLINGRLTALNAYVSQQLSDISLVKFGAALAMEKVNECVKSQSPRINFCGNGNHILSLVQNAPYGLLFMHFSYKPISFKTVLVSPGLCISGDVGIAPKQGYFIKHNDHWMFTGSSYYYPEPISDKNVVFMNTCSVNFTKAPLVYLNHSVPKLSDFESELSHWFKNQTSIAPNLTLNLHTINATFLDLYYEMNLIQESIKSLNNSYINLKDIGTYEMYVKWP

[4] = biological target: T4, Trimeric MERS-CoV spike ectodomain (tri-S) (MERS-CoV, UniProt K9N5Q8 18-1296)
T4 construct: extracellular domain
T4 sequence: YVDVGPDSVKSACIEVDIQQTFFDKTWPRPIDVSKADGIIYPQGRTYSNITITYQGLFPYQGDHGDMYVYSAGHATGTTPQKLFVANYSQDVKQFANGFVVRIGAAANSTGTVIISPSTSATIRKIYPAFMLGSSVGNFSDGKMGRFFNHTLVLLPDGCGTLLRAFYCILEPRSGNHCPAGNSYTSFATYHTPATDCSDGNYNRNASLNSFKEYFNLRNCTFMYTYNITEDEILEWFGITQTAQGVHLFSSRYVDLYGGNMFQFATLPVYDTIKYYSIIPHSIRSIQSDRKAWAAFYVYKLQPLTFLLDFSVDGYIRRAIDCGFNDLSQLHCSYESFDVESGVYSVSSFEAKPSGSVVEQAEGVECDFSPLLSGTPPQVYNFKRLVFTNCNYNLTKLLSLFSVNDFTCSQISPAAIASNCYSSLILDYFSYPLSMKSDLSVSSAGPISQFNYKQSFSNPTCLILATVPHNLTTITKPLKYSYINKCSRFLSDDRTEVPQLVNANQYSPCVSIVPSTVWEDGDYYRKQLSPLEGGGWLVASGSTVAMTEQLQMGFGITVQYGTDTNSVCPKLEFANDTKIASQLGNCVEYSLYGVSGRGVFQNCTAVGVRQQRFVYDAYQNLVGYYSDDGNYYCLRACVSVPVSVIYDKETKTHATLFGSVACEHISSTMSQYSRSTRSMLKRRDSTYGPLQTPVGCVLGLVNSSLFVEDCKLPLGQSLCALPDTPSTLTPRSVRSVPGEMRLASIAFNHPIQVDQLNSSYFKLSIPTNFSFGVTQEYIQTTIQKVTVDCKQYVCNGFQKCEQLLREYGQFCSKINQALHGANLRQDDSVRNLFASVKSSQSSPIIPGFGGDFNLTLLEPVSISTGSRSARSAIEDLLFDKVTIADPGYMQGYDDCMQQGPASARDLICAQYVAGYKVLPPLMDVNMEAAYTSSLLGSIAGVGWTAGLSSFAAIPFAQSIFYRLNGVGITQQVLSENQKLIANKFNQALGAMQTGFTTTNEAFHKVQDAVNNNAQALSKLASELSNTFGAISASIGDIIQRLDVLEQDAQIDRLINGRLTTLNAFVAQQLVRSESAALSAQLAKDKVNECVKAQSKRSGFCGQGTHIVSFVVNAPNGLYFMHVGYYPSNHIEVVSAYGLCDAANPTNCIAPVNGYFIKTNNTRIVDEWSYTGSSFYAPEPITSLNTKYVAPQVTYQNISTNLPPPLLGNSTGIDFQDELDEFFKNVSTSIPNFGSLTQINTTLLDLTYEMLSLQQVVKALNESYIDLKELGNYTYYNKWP

Measured: binding result

B1: Cv2.3132 IgG antibody (antibody, V domains shown)
VH: EVQLVESGGGLVKPGGSLRLSCAASGFTFSDYYMSWIRQAPGKGLEWVSYISSSGSVQYYADSVKGRFTISRDNAKNSLYLQMNSLRAEDTAVYYCARYYYDSSGYWKRLDYWGQGTLVTVSS
VL: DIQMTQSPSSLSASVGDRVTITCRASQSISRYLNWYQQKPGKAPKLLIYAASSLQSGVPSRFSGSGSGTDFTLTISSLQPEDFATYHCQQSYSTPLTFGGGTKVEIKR
notes: also called anti-HR2 antibody Cv2.3132
no binding: [1] | [2] | [3] | [4]

Reference: EP4442276A1 (INSTITUT PASTEUR, dated 2024)
